Data on one protein can be found in patent publication US20230212533.

In series [1] the target is Bovine mitochondrial cytochrome c, P62894.
Series [2] deals with T1, CycN cytochrome c protein (Pseudomonas putida S16).
T1 chain: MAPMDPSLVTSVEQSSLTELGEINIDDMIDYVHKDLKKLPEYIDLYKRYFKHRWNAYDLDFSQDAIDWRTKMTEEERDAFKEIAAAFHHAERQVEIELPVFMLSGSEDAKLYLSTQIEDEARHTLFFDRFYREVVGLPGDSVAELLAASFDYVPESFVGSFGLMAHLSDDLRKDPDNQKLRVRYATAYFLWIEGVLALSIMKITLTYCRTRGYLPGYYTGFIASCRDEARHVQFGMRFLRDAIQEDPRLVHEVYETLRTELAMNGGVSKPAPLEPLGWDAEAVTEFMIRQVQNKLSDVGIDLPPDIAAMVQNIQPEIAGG

Bovine mitochondrial cytochrome c, P62894, sequence (P62894 2-105): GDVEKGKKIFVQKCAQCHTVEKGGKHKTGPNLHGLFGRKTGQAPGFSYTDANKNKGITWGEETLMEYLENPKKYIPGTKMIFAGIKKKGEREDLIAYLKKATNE

B1: NicA2 nicotine oxidoreductase (wild-type, Pseudomonas putida S16) (protein)
chain: TQKTNRASTVKGGFDYDVVVVGGGFAGATAARECGLQGYRTLLLEARSRLGGRTFTSRFAGQEIEFGGAWVHWLQPHVWAEMQRYGLGVVEDPLTNLDKTLIMYNDGSVESISPDEFGKNIRIAFEKLCHDAWEVFPRPHEPMFTERARELDKSSVLDRIKTLGLSRLQQAQINSYMALYAGETTDKFGLPGVLKLFACGGWNYDAFMDTETHYRIQGGTIGLINAMLTDSGAEVRMSVPVTAVEQVNGGVKIKTDDDEIITAGVVVMTVPLNTYKHIGFTPALSKGKQRFIKEGQLSKGAKLYVHVKQNLGRVFAFADEQQPLNWVQTHDYSDELGTILSITIARKETIDVNDRDAVTREVQKMFPGVEVLGTAAYDWTADPFSLGAWAAYGVGQLSRLKDLQAAEGRILFAGAETSNGWHANIDGAVESGLRAGREVKQLLS
Regarding B1, in series [1], the “reduction of bovine cytochrome c, UV-VIS absorbance 250-600 nm for 15 minutes; 6.84 µM bovine cytochrome c with NicA2 and nicotine” value was “The bovine mitochondrial cytochrome c was not efficiently reduced by this system”. Further, in series [2], the “kobs for the second phase, stopped-flow at 542 nm” value is given as “invariant at ˜5.5 s^-1 independent of the CycNox concentration used”; the “reduction of CycN heme, UV-VIS absorbance (Soret band, 410 and 550 nm); 3.75 µM CycN, 30 nM NicA2, 100 µM nicotine” value was “a characteristic increase and shift of Soret banding pattern was observed, which indicated that CycN had become reduced”; the “time to complete electron transfer, anaerobic stopped-flow; 15 µM NicA2-Flred mixed with excess CycNox” value was “Electron transfer between NicA2-Flred and CycNox appeared to be very rapid, being complete in under one second”.
